Experimental data taken from patent KR20140095558A (dated 2014).

B1: SC06-409 (scFv)
scFv: EVQLVQSGAEVKKPGESLKISCKGSGYSFTNYWIGWVRQMPGKGLEWMGIIYPGDSDTRYSPSFQGQVTISADKSISTAYLQWSSLKASDTAMYYCARHTQNKNGMNTFDIWGQGTMVTVSSGTGGSGGTGSGTGGSTQSALTQPPSASGSPGQSVTISCTGTSSDIGGYNYVSWYQQHPGKAPKLMIYEVSNRPPGVSNRFSGSKSGNTASLTISGLQAEDEADYYCSSYSTTTTRVIFGGGTKLTVL
B2: SC06-429 (scFv)
scFv: QVQLVQSGAEVKNPGESLKISCKGSGYTFTSYWIGWVRQMPGKGLEWMGSIYPGDSDTRYSPSFQGQVTISVDKSISTAYLQWSSLKASDTAMYYCARQYRAGSTTRFDPWGQGTLVTVSSGTGGSGGTGSGTGGSTDVVMTQSPLSLPVTPGEPASISCRSSQSLRHRNGNNYLDWYLQKPGQSPQLLIYLGSNRASGVPDRFSGSGSGTDFTLKISRVEAEDVGIYYCMQALQTPLTFGGGTKVEIK
B3: SC06-432 (scFv)
scFv: QLQLQESGPGLVKPSQTLSLTCTVSGGSISSGGYYWSWIRQHPGKGLEWIGYIYYSGSTYYNPSLKSRVTISVDTSKNQFSLKLSSVTAADTAVYYCARERILDRMNDYWGQGTLVTVSSGTGGSGGTGSGTGGSTQSVVTQPPSVSGAPGQRVTISCTGSSSNIGAGYDVHWYQQLPGTAPKLLIYGNSNRPSGVPDRFSGSKSGTSASLAITGLQAEDEADYYCQSSDSSLNILFGGGTKLTVL
B4: SC06-388 (scFv)
scFv: EVQLVETGAEVKKPGESLRISCKGSGYSFTSYWIAWVRQMPGKGLEWMGVIYPGDSDARYSPSFQGQVTMSVDKSISTAYLQWSSLKASDTAMYYCAKLRSKNTGLDYWGQGTLVTVSSGTGGSGGTGSGTGGSTQSALTQPPSASGSPGQSVTISCTGTSSDVGGYNFVSWYQQHPGKAPKLMIYEVSNRPSGVPDRFSGSKSGNTASLTVSGLQAEDEADYYCSSYAGNNNLAFGGGTQLTVL
B5: SC06-415 (scFv)
scFv: EVQLVESGGGLVQPGRSLRLSCAASGFTFDDYAMHWVRQAPGKGLEWVSGISWNSGSIGYADSVKGRFTISRDNAKNSLYLQMNSLRAEDSAVYYCARGGQRFDFWGQGTLVTVSSGTGGSGGTGSGTGGSTQSALTQPPSASGSPGQSVTISCTGTSSDVGGYNYVSWYQQLPGKAPKLLIYDVNNRPSGVSNRFSGSKSGNTASLTISGLQAEDEAEYYCGSSVGSRLRIFGGGTKLTVL
B6: SC06-402 (scFv)
scFv: QVQLVQSGAEVKKPGESLKISCKGSGYSFTSYWIGWVRQMPGKGLEWMGIIYPGDSDTRYSPSFQGQVTISADKSISTAYLQWSSLKASDTAMYYCARWGGVCSSTSCPNRDAFDIWGQGTMVTVSSGTGGSGGTGSGTGGSTQSALTQPRSVSGSPGQSVTISCTGTSSDVGGYNYVSWYQQHPGKAPKLMIYDVSNRPSGVSNRFSGSKSGNTASLTISGLQAEDEAEFHCSSYRSSGASPVVFGGGTKLTVL
B7: SC06-389 (scFv)
scFv: QVQLVQSGAEVKKPGESLKISCKGSGYSFSTYWIGWVRQMPGKGLEWMGIIYPGDSDTRYSPSFQGQVTISADKSISTAHLQWSSLKASDTAMYYCARPGPRGYNHGFDYWGQGTLVTVSSGTGGSGGTGSGTGGSTSSELTQDPAESVALGQTVKITCQGDSLRRYYASWYQQKPGQAPVLVIYGKNNRPSGIPDRFSGSRSGNTASLTITGAQAEDEAVYYCNSRDSSGNSVVFGGGTKLTVL
B8: SC05-179 (scFv)
scFv: EVQLVESGGGLVKPGGSLGLSCAASGFFFSDYSMSWIRQAPGKGLEWLSNISGSGHSTKYAESMRGRITISRDNAKKSLSLQLNSLRAEDTAVYFCVRGGGYRMDVWGQGTTVTVSSGTGGSGGTGSGTGGSTQSALTQPRSVPGSPGQSVTISCTGTSSDVGGYNYVSWYQQHPGKAPKLMIYDVSKRPSGVPDRFSGSKSGNTASLTVSGLQAEDEADYYCSSYAGSNNFVVFGGGTKLTVL

Biological target: T1, BSA (bovine serum albumin) (bovine (송아지 혈청 알부민), UniProt P02769 25-607)
T1 construct: Negative control antigen of the phage ELISA; also called 송아지 혈청 알부민
T1 sequence (P02769 25-607 limits assumed): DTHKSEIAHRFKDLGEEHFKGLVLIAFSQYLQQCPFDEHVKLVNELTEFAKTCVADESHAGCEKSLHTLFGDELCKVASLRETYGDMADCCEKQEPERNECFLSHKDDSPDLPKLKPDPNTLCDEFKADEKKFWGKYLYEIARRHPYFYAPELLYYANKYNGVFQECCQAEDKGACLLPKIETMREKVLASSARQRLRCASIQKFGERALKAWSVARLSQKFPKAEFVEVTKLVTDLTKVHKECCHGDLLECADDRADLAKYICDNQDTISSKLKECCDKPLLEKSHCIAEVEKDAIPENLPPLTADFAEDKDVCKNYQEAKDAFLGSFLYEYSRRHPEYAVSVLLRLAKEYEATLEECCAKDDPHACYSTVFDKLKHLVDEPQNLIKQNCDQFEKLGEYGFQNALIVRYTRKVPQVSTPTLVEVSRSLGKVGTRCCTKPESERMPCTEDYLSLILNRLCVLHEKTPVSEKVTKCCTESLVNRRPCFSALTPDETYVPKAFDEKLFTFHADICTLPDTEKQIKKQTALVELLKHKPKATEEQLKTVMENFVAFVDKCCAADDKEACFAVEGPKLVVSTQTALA
Assay: phage ELISA, 1% BSA coated, anti-M13 peroxidase, OD 492 nm

Question: Does B1 bind?
Answer: Result: no binding

Question: Does B2 bind?
Answer: Result: no binding

Question: Does B3 bind?
Answer: Result: no binding

Question: Does B4 bind?
Answer: Result: no binding

Question: Does B5 bind?
Answer: Result: no binding

Question: Does B6 bind?
Answer: Result: no binding

Question: Does B7 bind?
Answer: Result: no binding

Question: Does B8 bind?
Answer: Result: no binding
